The experiment deals with human VEGF-A165 (human).

“FcD2, monospecific fusion of hinge, Fc, linker and VEGFR1 D2 (from UniProt P17948 129-229) (Fc fusion)”: the inhibition of VEGF-stimulated HUVEC growth (CellTiter-Glo) was found to be 2.1 nM.

These data come from publication PMC4623440.
